Results: PMC3568127

Target: NRP1 (neuropilin 1) expressed from an adenovirus on DU145 cells (UniProt O14786)
Test: cell based binding displacement assay (biotinylated ligand, streptavidin-HRP, A450); DU145 cells infected with Ad.NRP1 in 96-well plates; various concentrations of competitor then 1 nM bt-VEGF-A165; binding medium with or without 0.1% BSA; 2 h at room temperature; apparent affinity judged by IC50

NRP1 (neuropilin 1) expressed from an adenovirus on DU145 cells, sequence (O14786 22-923): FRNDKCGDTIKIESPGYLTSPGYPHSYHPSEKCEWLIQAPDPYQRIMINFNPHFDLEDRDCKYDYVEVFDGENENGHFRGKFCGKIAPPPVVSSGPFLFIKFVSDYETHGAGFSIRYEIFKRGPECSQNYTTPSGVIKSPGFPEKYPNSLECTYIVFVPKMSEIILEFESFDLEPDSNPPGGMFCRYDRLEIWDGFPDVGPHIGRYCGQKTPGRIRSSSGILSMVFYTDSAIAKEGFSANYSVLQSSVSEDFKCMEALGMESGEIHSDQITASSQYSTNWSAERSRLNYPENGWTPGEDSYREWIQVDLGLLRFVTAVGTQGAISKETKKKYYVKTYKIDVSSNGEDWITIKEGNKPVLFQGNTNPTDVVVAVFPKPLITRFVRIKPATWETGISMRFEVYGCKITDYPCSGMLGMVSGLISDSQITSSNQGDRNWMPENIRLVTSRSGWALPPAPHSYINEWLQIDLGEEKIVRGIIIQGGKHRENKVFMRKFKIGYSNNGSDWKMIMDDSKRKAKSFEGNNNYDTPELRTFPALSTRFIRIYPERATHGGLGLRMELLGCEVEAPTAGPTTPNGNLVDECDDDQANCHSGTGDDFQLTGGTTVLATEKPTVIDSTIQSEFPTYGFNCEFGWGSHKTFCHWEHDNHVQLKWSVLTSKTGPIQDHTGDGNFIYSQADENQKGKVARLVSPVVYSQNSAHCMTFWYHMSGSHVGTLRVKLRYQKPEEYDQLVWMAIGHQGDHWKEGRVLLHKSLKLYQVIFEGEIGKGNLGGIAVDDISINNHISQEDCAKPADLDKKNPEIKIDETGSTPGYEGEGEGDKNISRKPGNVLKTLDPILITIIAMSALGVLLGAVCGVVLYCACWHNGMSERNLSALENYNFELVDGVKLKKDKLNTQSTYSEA

IC50: 100 to 200 nM
Substance: VEGF-A165-HBD (the forms of the cell based assay: with and without the His6-tag)
